From patent US20030095962A1, “Chimeric cell-surface receptors that undergo antigen-induced association” (priority 1997, published 2003) come the findings set out here.

This experiment concerns the target hen egg lysozyme (hen) (UniProt P00698). Briefly: cell-based or functional assay.

Chain of hen egg lysozyme (hen) (P00698 19-147): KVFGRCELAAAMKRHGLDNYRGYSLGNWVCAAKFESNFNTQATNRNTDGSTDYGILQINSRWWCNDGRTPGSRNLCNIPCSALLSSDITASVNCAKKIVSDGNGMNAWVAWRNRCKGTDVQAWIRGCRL
Chain of pair of chimeric receptor polypeptides: HyHEL-10 VH fused to mouse erythropoietin receptor (pME-VHER) and HyHEL-10 VL fused to mouse erythropoietin receptor (pME-VLER), expressed on Ba/F3 cells (from (P14753 146-507, change not shown): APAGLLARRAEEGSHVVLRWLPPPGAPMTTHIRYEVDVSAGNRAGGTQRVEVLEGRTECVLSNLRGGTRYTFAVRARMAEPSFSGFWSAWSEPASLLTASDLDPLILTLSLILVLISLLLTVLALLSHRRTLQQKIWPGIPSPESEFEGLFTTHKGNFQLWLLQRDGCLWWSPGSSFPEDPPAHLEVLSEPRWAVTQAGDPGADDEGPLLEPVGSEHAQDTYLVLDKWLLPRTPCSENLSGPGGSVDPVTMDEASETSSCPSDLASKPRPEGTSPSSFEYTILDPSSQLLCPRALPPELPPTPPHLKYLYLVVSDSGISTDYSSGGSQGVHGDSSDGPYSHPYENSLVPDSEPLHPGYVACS
Chain of pair of chimeric receptor polypeptides: HyHEL-10 VH fused to mouse erythropoietin receptor (pME-VHER) and HyHEL-10 VL fused to mouse erythropoietin receptor (pME-VLER), expressed on Ba/F3 cells (from (P14753 146-507, change not shown): as above

Consider “pair of chimeric receptor polypeptides: HyHEL-10 VH fused to mouse erythropoietin receptor (pME-VHER) and HyHEL-10 VL fused to mouse erythropoietin receptor (pME-VLER), expressed on Ba/F3 cells (from UniProt P14753 146-507; P14753 146-507)”, for which the cell proliferation of Clone G8 cultured with different constant amounts of HEL over a 5-day period (times the rate) is more than 5 and the lowest HEL concentration giving accelerated cell growth stood at 5 ng/mL.
